From publication PMC12318183, “Structure reveals a regulation mechanism of plant outward-rectifying K^+ channel GORK by structural rearrangements in the CNBD–Ankyrin bridge” (Proceedings of the National Academy of Sciences of the …, 2025)
Each block holds one molecule with its values, some of them ahead of it.

Assays:
[1] = molecular target: GORK(CA-ANK)_(AKT1) chimeric channel (Arabidopsis thaliana | Arabidopsis)
[2] = molecular target: the molecule itself; assay: cryo-EM structure; single-particle cryo-EM of purified GORK at 4 mg/ml; SEC buffer 0.02% GDN, 150 mM KCl, 20 mM Tris pH 8.0, 2 mM DTT; consensus map and five maps from ANK-focused 3D classification

outward K+ current of GORK(CA-ANK) (AKT1) in Xenopus oocytes with coexpressed CIPK23/CBL1 against without, two-electrode voltage clamp, at 70 mV [1]: 3 fold
Molecule: CIPK23/CBL1 protein kinase complex (from UniProt Q93VD3 1-482; O81445 1-213)

B1: GUARD CELL OUTWARD-RECTIFYING K+ (GORK) channel (natural protein, Arabidopsis thaliana)
chain: GRLRRRQEIIDHEEEESNDDVSSRRGKLSLAETFRWLDSSEHRRIETDGHNDYKYIIHPKNRWYKAWEMFILVWAIYSSLFTPMEFGFFRGLPERLFVLDIVGQIAFLVDIVLQFFVAYRDTQTYRTVYKPTRIAFRYLKSHFLMDFIGCFPWDLIYKASGKHELVRYLLWIRLFRVRKVVEFFQRLEKDTRINYLFTRILKLLFVEVYCTHTAACIFYYLATTLPPENEGYTWIGSLKLGDYSYENFREIDLWKRYTTALYFAIVTMATVGYGDIHAVNLREMIFVMIYVSFDMVLGAYLIGNITALIVKGSNTERFRDKMNDLISFMNRKKLGRDLRSQITGHVRLQYDSHYTDTVMLQDIPASIRAKIAQLLYLPYIKKVPLFKGCSTEFINQIVIRLHEEYFLPGEVITEQGNVVDHLYFVCEGLLEALVTKTDGSEESVTLLGPHTSFGDISIICNISQPFTVRVCELCHLLRLDKQSFSNILEIYFHDGRTILNNIMEEKESNDRIKKLESDIVIHIGKQEAELALKVNSAAFQGDFYQLKSLIRSGADPNKTDYDGRSPLHLAACRGYEDITLFLIQEGVDVNLKDKFGHTPLFEAVKAGQEGVIGLLVKEGASFNLEDSGNFLCTTVAKGDSDFLKRLLSSGMNPNSEDYDHRTPLHVAASEGLFLMAKMLVEAGASVISKDRWGNSPLDEARLCGNKKLIKLLEDVKNAQSSIYPSSLRELQEERIERRKCTVFPFHPQEAKEERSRKHGVVVWIPSNLEKLIVTAAKELGLSDGASFVLLSEDQGRITDIDMISDGHKLYMISDTTDQT
notes: GORK outward-rectifying K+ channel, Arabidopsis thaliana, UniProt Q94A76; optimised synthetic coding DNA; positions counted from the initial Met; the model covers about residues 50-720; No step that removes a tag is described; Solubilised in LMNG/CHS, kept in GDN; also called GORKWT1; GORKWT2
stoichiometry N [2]: 4
